Experimental findings from patent publication US20150299264A1 are described below.

No end group written: not given here.

The assay addresses 40 non-kinase enzyme assays, including phosphatases and proteases. Kind of assay: cell-based or functional assay. The conditions noted are these: scale: % inhibition of activity at 100 µM MMI-0100.

Take YARAAARQARAKALARQLGVAA (also: acetate salt) [MMI-0100 peptide (…; SEQ ID NO: 1)]: the inhibition of activity in enzyme assays in the presence and absence of 100 µM MMI-0100 was under 50.
